The text below walks through data of paper PMC4064709, “Acceleration of an aldo-keto reductase by minimal loop engineering” (Protein Engineering, Design and Selection, 2014).

What all share (test): initial rates of NADH-dependent reduction
Common to all, as to type: biochemical, Yamadazyma tenuis

The subject of data set [1] is T1, NC(=O)C1=CN([C@@H]2O[C@H](COP(=O)(O)OP(=O)(O)OC[C@H]3O[C@@H](n4cnc5c(N)ncnc54)[C@H](O)[C@@H]3O)[C@@H](O)[C@H]2O)C=CC1.
T1 construct: full-length enzyme; redesigned CtXR expressed in E. coli BL21 (DE3), purified by dye ligand chromatography
The following applies: apparent; co-substrate 2′-chloroacetophenone (max 10 mM), as in the wild-type row; W23 and K24 replaced by pentapeptide FAPRE; varied: cofactor. The source says:
(§1) initial rates of NADH-dependent reduction on Candida tenuis xylose reductase (CtXR)

The subject of data set [2] is T2, CCOC(=O)C(=O)c1ccc(C#N)cc1.
T2 construct: full-length enzyme; redesigned CtXR expressed in E. coli BL21 (DE3), purified by dye ligand chromatography
The following applies: apparent; 300 µM NADH; max 10 mM; W23 and K24 replaced by pentapeptide FAPRE.
From the text: as §1

The next data set relates to T3, CC(=O)c1ccc(Cl)cc1Cl.
T3 construct: full-length enzyme; redesigned CtXR expressed in E. coli BL21 (DE3), purified by dye ligand chromatography
The following applies: apparent; 300 µM NADH; max 5 mM; W23 and K24 replaced by pentapeptide FAPRE.
From the text: as §1

Another data set relates to T4, CC(=O)c1ccccc1Cl.
T4 construct: full-length enzyme; redesigned CtXR expressed in E. coli BL21 (DE3), purified by dye ligand chromatography
The following applies: apparent; 300 µM NADH; max 10 mM; W23 and K24 replaced by pentapeptide FAPRE.
From the text: as §1

Substrate in data set [3]: CCOC(=O)C(=O)c1ccc(C#N)cc1
The conditions noted are these: apparent; 300 µM NADH; incomplete substrate saturation (max 10 mM).
From the text: as §1

Substrate in data set [4]: NC(=O)C1=CN([C@@H]2O[C@H](COP(=O)(O)OP(=O)(O)OC[C@H]3O[C@@H](n4cnc5c(N)ncnc54)[C@H](O)[C@@H]3O)[C@@H](O)[C@H]2O)C=CC1
The following applies: apparent; co-substrate 2′-chloroacetophenone (max 10 mM); varied: cofactor.
From the text: as §1

Substrate in data set [5]: CC(=O)c1ccccc1Cl
The following applies: apparent; 300 µM NADH; incomplete substrate saturation (max 10 mM).
From the text: as §1

Substrate in data set [6]: CC(=O)c1ccc(Cl)cc1Cl
The conditions noted are these: apparent; 300 µM NADH; incomplete substrate saturation (max 5 mM).
From the text: as §1

For “Candida tenuis xylose reductase (CtXR) (Yamadazyma tenuis; INS25PRE/K25A/W24F)”, the Km (as a rule, the substrate concentration at which the rate is half of its maximum) in data set [1] came out at 0.07 ± 0.02 mM; in data set [2], 4 ± 1 mM; with CC(=O)c1ccc(Cl)cc1Cl it was 4 ± 1 mM; in the data set with CC(=O)c1ccccc1Cl, 5 ± 2 mM. Moreover, the kcat (usually the number of substrate molecules converted per active site and unit of time at saturation) is 1.0 ± 0.2 s⁻¹ in data set [1], 17 ± 2 s⁻¹ in data set [2], 2.0 ± 0.4 s⁻¹ in the data set with CC(=O)c1ccc(Cl)cc1Cl and 1.0 ± 0.2 s⁻¹ with CC(=O)c1ccccc1Cl. Besides, the kcat/Km (in general, the turnover number divided by the Michaelis constant) in data set [1] turned out to be 7600 ± 500 M⁻¹ s⁻¹; in the data set on CC(=O)c1ccccc1Cl it was 370 ± 50 M⁻¹ s⁻¹.

B1: Candida tenuis xylose reductase (CtXR) (Yamadazyma tenuis) (protein)
chain: MSASIPDIKLSSGHLMPSIGFGCWKLANATAGEQVYQAIKAGYRLFDGAEDYGNEKEVGDGVKRAIDEGLVKREEIFLTSKLWNNYHDPKNVETALNKTLADLKVDYVDLFLIHFPIAFKFVPIEEKYPPGFYCGDGNNFVYEDVPILETWKALEKLVAAGKIKSIGVSNFPGALLLDLLRGATIKPAVLQVEHHPYLQQPKLIEFAQKAGVTITAYSSFGPQSFVEMNQGRALNTPTLFAHDTIKAIAAKYNKTPAEVLLRWAAQRGIAVIPKSNLPERLVQNRSFNTFDLTKEDFEEIAKLDIGLRFNDPWDWDNIPIFV
notes: full-length enzyme; redesigned CtXR expressed in E. coli BL21 (DE3), purified by dye ligand chromatography
Regarding B1, the Km in data set [3] is 5 ± 2 mM; in data set [4] it was 0.11 ± 0.025 mM; in data set [5], 13 ± 4 mM; in data set [6], 6 ± 2 mM. For the same molecule, the kcat was determined as 0.4 ± 0.06 s⁻¹ in data set [3], 0.8 ± 0.1 s⁻¹ in data set [4] and 2.7 ± 0.3 s⁻¹ in data set [6]. The kcat/Km in data set [3] stood at 100 ± 10 M⁻¹ s⁻¹; in data set [4], 8700 ± 400 M⁻¹ s⁻¹.
